# Patent publication US20160237144A1
# B1: RabMab 0612pS3A8 (antibody, V domains shown)
# VH: CQSVEESGGRLVTPGTPLTLTCTVSGFSLSSNAISWVRQAPGKGLEWIGIINNIGSTWYASWAKGRFTISKASSTTVDLKMTSLTTEDTATYFCARIVVNYNLGPYNLWGPGTLVTVSS
# VL: AFELTQTPSSVEAAVGGTVTIKCQATENIGNALAWYQQKPGQPPKLLIYRASTLASGVPSRFKGSGSGTDFTLTISDLECADAATYYCQSYYDIYTYVFGGGTEL
# B2: RabMab 0712pS4D3 (antibody, V domains shown)
# VH: CQSLEESGGRLVKPGGSLTLTCTVSGFSLSSYAMIWVRQAPGKGLEWIGVISSLGITYYANWAKGRFTISKASTTVDLKIASPTIGDTATYFCARGFFAGGSNYYPLWGPGTLVTVSS
# VL: CQASETIINWCSWYQQKPGQPPKLLIYKASNLESGVPSRFKGSGSGTEFTLTISDLECADAATYYCQQGYGYRDLENPFGGGTEVVVKG
# Tests used:
# [1] = molecular target: TtSlyD-FKBP-A (Thermus thermophilus); assay: SPR (Biacore), captured antibody, TtSlyD_A as analyte 0-300 nM, Langmuir fit
# [2] = molecular target: TtSlyD-FKBP-B (Thermus thermophilus); assay: SPR (Biacore), captured antibody, TtSlyD_B as analyte 0-300 nM, Langmuir fit
# [3] = molecular target: TtSlyD-FKBP-B (Thermus thermophilus); assay: SPR (Biacore), 25 C; antibody (212 RU) captured on goat anti-rabbit Fc-gamma, TtSlyD-B as analyte; Langmuir fit
# [4] = molecular target: TtSlyD-FKBP-A (Thermus thermophilus); assay: SPR (Biacore), 25 C; antibody (223 RU) captured on goat anti-rabbit Fc-gamma, TtSlyD-A as analyte; Langmuir fit
# [5] = molecular target: TtSlyD-FKBP-A (Thermus thermophilus); assay: SPR (Biacore B3000), antibody captured by GAR-Fcγ, scaffold in solution, 25° C.; dissociation beyond instrument limit
# [6] = molecular target: TtSlyD-FKBP-B (Thermus thermophilus); assay: as above
# [7] = molecular target: TtSlyD-FKBP-A (Thermus thermophilus); assay: SPR (Biacore), 25 C; antibody captured on goat anti-rabbit Fc-gamma, TtSlyD-A as analyte; kd set to the instrument limit of 1e-05 1/s
# [8] = molecular target: TtSlyD-FKBP-B (Thermus thermophilus); assay: SPR (Biacore), 25 C; antibody captured on goat anti-rabbit Fc-gamma, TtSlyD-B as analyte; kd set to the instrument limit of 1e-05 1/s
# [9] = molecular target: TtSlyD-FKBP-A (Thermus thermophilus); assay: SPR (Biacore), 25 C; antibody captured on goat anti-rabbit Fc-gamma, TtSlyD-A as analyte; apparent affinity, kd set to the instrument limit
# [10] = molecular target: TtSlyD-FKBP-B (Thermus thermophilus); assay: SPR (Biacore), 25 C; antibody captured on goat anti-rabbit Fc-gamma, TtSlyD-B as analyte; apparent affinity, kd set to the instrument limit
# [11] = molecular target: TtSlyD-FKBP-B (Thermus thermophilus); assay: SPR (Biacore), 25 C; antibody (89 RU) captured on goat anti-rabbit Fc-gamma, TtSlyD-B as analyte; Langmuir fit
# [12] = molecular target: TtSlyD-FKBP-A (Thermus thermophilus); assay: SPR (Biacore), 25 C; antibody (92 RU) captured on goat anti-rabbit Fc-gamma, TtSlyD-A as analyte; Langmuir fit
# [13] = molecular target: TtSlyD-FKBP clone 5F8 (Thermus thermophilus); assay: SPR (Biacore), 25 C; 1141 RU 0712pS4D5 captured on goat anti-rabbit antibody, scaffold 5F8 (18 kDa) captured by it
# [14] = molecular target: TtSlyD-FKBP clone 3 C1 (Thermus thermophilus); assay: SPR (Biacore), 25 C; 1253 RU 0712pS4D5 captured on goat anti-rabbit antibody, scaffold 3C1 (18 kDa) captured by it
# [15] = molecular target: TtSlyD-FKBP clone 3 F12 (Thermus thermophilus); assay: SPR (Biacore), 25 C; 1268 RU 0712pS4D5 captured on goat anti-rabbit antibody, scaffold 3F12 (18 kDa) captured by it
# Chain of TtSlyD-FKBP clone 3 F12 (Thermus thermophilus) (main, as listed by the source): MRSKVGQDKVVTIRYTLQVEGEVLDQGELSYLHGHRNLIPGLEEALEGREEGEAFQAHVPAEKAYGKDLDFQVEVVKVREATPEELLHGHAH
# Chain of TtSlyD-FKBP-A (Thermus thermophilus) (main, as listed by the source): as above
# Chain of TtSlyD-FKBP-B (Thermus thermophilus) (main, as listed by the source): as above
# Chain of TtSlyD-FKBP clone 3 C1 (Thermus thermophilus) (main, as listed by the source): as above
# Chain of TtSlyD-FKBP clone 5F8 (Thermus thermophilus) (main, as listed by the source): as above
Binder,Kd [1] [nM],MR (Molar Ratio) [1],koff [1] [s⁻¹],kon [1] [M⁻¹ s⁻¹],Kd [2] [nM],MR (Molar Ratio) [2],koff [2] [s⁻¹],kon [2] [M⁻¹ s⁻¹],koff [5] [s⁻¹],koff [6] [s⁻¹],koff [7] [s⁻¹],koff [8] [s⁻¹],Kd [9] [nM],Kd [10] [nM],also measured
B1,0.008,1.2,< 1e-05,1.27e+06,0.023,1.4,< 1e-05,428000,< 1e-05,< 1e-05,1e-05,1e-05,0.00787,0.0234,MR (Molar Ratio) [3]: 1.4; kon [3]: 428000 M⁻¹ s⁻¹; MR (Molar Ratio) [4]: 1.2; kon [4]: 1.27e+06 M⁻¹ s⁻¹
B2,0.03,1.7,< 1e-05,335000,0.037,1.9,< 1e-05,271000,< 1e-05,< 1e-05,1e-05,1e-05,0.0299,0.0369,MR (Molar Ratio) [11]: 1.9; kon [11]: 271000 M⁻¹ s⁻¹; MR (Molar Ratio) [12]: 1.7; kon [12]: 335000 M⁻¹ s⁻¹; MR (Molar Ratio) [13]: 2; scaffold (RU) [13]: 254 RU; MR (Molar Ratio) [14]: 2; scaffold (RU) [14]: 267 RU; MR (Molar Ratio) [15]: 2; scaffold (RU) [15]: 286 RU
